Reference: paper PMC9127186, “Molecular Basis Underlying Hepatobiliary and Renal Excretion of Phenolic Acids of Salvia miltiorrhiza Roots (Danshen)” (Frontiers in Pharmacology, 2022)
Where a SMILES comes first, the peptide text is derived from it. [ ]: non-standard residue; d: D form. Sar = CNCC(=O)O

Experiments:
[1] = target: T1, rat Pept1 (Rattus norvegicus, UniProt P51574); assay: Cellular transport assay, HEK-293 cells expressing rat Pept1; conditions: positive substrate 20 μM, 10 min; rat Pept1
T1 sequence (P51574 1-710): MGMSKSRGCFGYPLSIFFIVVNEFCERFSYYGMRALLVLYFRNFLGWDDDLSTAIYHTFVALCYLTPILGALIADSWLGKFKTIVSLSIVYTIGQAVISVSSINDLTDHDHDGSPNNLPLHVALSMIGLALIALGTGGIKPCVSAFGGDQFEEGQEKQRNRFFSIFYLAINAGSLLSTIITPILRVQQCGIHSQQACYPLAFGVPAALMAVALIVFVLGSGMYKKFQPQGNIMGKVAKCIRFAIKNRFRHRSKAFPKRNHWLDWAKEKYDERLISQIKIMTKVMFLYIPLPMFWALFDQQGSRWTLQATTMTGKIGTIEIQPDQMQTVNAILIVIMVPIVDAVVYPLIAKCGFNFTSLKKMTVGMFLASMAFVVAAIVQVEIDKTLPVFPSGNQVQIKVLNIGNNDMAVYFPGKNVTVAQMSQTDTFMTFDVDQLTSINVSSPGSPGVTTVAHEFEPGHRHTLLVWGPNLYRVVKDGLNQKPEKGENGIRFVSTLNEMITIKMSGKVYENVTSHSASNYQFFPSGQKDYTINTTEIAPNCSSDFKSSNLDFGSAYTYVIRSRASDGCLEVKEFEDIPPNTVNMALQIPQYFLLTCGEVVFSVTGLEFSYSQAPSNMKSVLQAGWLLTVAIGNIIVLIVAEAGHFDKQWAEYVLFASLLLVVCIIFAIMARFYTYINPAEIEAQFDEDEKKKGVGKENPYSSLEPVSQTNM

[2] = target: T2, rat Pept2 (Rattus norvegicus, UniProt Q63424); assay: Cellular transport assay, HEK-293 cells expressing rat Pept2; conditions: positive substrate 20 μM, 10 min; rat Pept2
T2 sequence (Q63424 1-729): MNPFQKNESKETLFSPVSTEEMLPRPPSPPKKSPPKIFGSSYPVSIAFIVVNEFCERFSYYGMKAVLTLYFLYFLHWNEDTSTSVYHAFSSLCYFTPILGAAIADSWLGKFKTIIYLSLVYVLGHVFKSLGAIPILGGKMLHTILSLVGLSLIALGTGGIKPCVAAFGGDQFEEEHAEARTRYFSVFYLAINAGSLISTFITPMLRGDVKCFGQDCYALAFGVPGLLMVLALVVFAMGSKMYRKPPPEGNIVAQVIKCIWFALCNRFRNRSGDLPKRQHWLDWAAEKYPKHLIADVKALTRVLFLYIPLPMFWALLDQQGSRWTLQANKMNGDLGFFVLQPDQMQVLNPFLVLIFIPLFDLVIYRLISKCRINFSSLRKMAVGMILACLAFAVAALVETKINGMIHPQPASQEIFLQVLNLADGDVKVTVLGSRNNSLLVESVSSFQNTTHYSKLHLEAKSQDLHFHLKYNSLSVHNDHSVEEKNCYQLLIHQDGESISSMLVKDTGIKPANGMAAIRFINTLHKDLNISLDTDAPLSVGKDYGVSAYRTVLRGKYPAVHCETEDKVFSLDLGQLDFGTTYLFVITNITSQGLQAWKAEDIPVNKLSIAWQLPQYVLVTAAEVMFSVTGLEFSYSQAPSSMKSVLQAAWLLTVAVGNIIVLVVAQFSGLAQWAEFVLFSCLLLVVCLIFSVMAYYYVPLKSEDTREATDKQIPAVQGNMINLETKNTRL

[3] = target: T3, human PEPT1 (Homo sapiens, UniProt P46059); assay: Cellular transport assay, HEK-293 cells expressing human PEPT1; conditions: positive substrate 20 μM, 10 min; human transporter printed PEPE1
T3 sequence (P46059 1-708): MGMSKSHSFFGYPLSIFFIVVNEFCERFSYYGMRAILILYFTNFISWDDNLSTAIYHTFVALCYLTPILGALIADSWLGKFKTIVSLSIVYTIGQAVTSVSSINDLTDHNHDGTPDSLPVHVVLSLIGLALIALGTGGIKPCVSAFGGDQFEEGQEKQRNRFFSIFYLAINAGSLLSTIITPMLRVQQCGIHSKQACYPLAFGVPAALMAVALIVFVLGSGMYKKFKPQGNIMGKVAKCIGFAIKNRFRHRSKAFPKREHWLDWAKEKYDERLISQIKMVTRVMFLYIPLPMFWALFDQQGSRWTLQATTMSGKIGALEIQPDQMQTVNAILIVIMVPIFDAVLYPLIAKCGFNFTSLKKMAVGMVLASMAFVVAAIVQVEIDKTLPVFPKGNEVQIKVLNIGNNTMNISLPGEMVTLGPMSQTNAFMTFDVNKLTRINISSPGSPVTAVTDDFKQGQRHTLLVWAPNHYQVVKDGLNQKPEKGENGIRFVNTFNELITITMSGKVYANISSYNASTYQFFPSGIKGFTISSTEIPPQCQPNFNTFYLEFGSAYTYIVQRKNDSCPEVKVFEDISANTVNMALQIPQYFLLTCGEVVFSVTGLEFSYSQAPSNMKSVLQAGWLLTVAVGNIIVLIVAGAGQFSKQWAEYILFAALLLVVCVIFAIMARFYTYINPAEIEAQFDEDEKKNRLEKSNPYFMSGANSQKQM

[4] = target: T4, human PEPT2 (Homo sapiens, UniProt Q16348); assay: Cellular transport assay, HEK-293 cells expressing human PEPT2; conditions: positive substrate 20 μM, 10 min; human PEPT2
T4 sequence (Q16348 1-729): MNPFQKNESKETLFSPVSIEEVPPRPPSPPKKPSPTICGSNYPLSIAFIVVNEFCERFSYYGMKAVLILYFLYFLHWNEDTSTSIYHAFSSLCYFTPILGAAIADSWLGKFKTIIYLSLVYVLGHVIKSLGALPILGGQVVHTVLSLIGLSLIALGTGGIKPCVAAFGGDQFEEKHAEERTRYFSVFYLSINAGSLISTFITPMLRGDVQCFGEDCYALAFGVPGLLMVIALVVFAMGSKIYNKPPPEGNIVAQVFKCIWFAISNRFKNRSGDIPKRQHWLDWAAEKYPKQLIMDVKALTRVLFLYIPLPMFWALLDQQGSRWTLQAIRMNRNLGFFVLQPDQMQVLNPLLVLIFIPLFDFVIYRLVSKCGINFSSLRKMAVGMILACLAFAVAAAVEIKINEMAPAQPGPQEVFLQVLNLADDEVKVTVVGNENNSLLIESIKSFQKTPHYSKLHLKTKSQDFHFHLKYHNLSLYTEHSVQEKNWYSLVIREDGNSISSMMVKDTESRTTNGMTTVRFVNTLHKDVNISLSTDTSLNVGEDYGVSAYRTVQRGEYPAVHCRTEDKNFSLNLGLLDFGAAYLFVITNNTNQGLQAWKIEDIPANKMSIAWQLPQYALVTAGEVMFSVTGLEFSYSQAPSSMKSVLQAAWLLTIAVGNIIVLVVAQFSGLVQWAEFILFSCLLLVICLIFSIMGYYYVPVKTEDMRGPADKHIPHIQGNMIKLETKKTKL

[5] = substrate: O=C(/C=C/c1ccc(O)c(O)c1)O[C@H](Cc1ccc(O)c(O)c1)C(=O)O; assay: cells, lysate or membranes named; conditions: 5 min incubation, concentrations in Table 1, 37.0 °C
[6] = substrate: O=C(/C=C/c1ccc(O)c(O)c1/C=C/c1ccc(O)c(O)c1)O[C@H](Cc1ccc(O)c(O)c1)C(=O)O; assay: cells, lysate or membranes named; conditions: other: rat hepatic sinusoidal uptake Oatp1b2; 5 min incubation, concentrations in Table 1; 37.0 °C
[7] = substrate: O=C(/C=C/c1ccc(O)c2c1[C@H](C(=O)O)[C@@H](c1ccc(O)c(O)c1)O2)O[C@H](Cc1ccc(O)c(O)c1)C(=O)O; assay: cells, lysate or membranes named; conditions: 5 min incubation, concentrations in Table 1, 37.0 °C
[8] = substrate: O=C(O)Cc1c(/C=C/C(=O)OC(Cc2ccc(O)c(O)c2)C(=O)O)ccc(O)c1O; assay: cells, lysate or membranes named; conditions: 5 min incubation, concentrations in Table 1, 37.0 °C
[9] = other: rat hepatic sinusoidal uptake Oatp1b2
[10] = other: human hepatic sinusoidal uptake OATP1B1

CN(CC(=O)O)C(=O)CN [GS, glycylsarcosine, reference compound] (H-Gly-[Sar]-OH)
TransportTC/TransportMC ratio, positive substrate [1]: 90.1 ± 10.4 (GS)
TransportTC/TransportMC ratio, positive substrate [2]: 101 ± 19 (GS)
TransportTC/TransportMC ratio, positive substrate [3]: 126 ± 31 (GS)
TransportTC/TransportMC ratio, positive substrate [4]: 360 ± 49 (GS)

B1: rat Oatp1b2 (Rattus norvegicus) (protein)
chain: MDHTQQSRKAAEAQPSRSKQTRFCDGFKLFLAALSFSYICKALGGVVMKSSITQIERRFDIPSSISGLIDGGFEIGNLLVIVFVSYFGSKLHRPKLIGIGCFIMGIGSILTALPHFFMGYYKYAKENDIGSLGNSTLTCFINQMTSPTGPSPEIVEKGCEKGLKSHMWIYVLMGNMLRGIGETPIVPLGISYLDDFAKEGHTSMHLGTLHTIAMIGPILGFIMSSVFAKIYVDVGYVDLNSVRITPNDARWVGAWWLSFIVNGLLCITSSIPFFFLPKIPKRSQEERKNSVSLHAPKTDEEKKHMTNLTKQEEQDPSNMTGFLRSLRSILTNEIYVIFLILTLLQVSGFIGSFTYLFKFIEQQFGRTASQANFLLGIITIPTMATAMFLGGYIVKKFKLTSVGIAKFVFFTSSVAYAFQFLYFPLLCENKPFAGLTLTYDGMNPVDSHIDVPLSYCNSDCSCDKNQWEPICGENGVTYISPCLAGCKSFRGDKKPNNTEFYDCSCISNSGNNSAHLGECPRYKCKTNYYFYIILQVTVSFFTAMGSPSLILILMKSVQPELKSLAMGFHSLIIRALGGILAPIYYGAFIDRTCIKWSVTSCGKRGACRLYNSRLFGFSYLGLNLALKTPPLFLYVVLIYFTKRKYKRNDNKTLENGRQFTDEGNPDSVNKNGYYCVPYDEQSNETPL
Vmax [5, 9]: 0.000159 µmol/min/mg
Vmax/Km [5, 9]: 0.08 µL/min/mg
Vmax [6]: 1.92e-05 µmol/min/mg
Vmax/Km [6]: 0.38 µL/min/mg
Vmax [7, 9]: 3.77e-05 µmol/min/mg
Vmax/Km [7, 9]: 0.41 µL/min/mg
Vmax [8, 9]: 0.000572 µmol/min/mg
Vmax/Km [8, 9]: 1.23 µL/min/mg

B2: human OATP1B1 (Homo sapiens) (protein)
chain: MDQNQHLNKTAEAQPSENKKTRYCNGLKMFLAALSLSFIAKTLGAIIMKSSIIHIERRFEISSSLVGFIDGSFEIGNLLVIVFVSYFGSKLHRPKLIGIGCFIMGIGGVLTALPHFFMGYYRYSKETNINSSENSTSTLSTCLINQILSLNRASPEIVGKGCLKESGSYMWIYVFMGNMLRGIGETPIVPLGLSYIDDFAKEGHSSLYLGILNAIAMIGPIIGFTLGSLFSKMYVDIGYVDLSTIRITPTDSRWVGAWWLNFLVSGLFSIISSIPFFFLPQTPNKPQKERKASLSLHVLETNDEKDQTANLTNQGKNITKNVTGFFQSFKSILTNPLYVMFVLLTLLQVSSYIGAFTYVFKYVEQQYGQPSSKANILLGVITIPIFASGMFLGGYIIKKFKLNTVGIAKFSCFTAVMSLSFYLLYFFILCENKSVAGLTMTYDGNNPVTSHRDVPLSYCNSDCNCDESQWEPVCGNNGITYISPCLAGCKSSSGNKKPIVFYNCSCLEVTGLQNRNYSAHLGECPRDDACTRKFYFFVAIQVLNLFFSALGGTSHVMLIVKIVQPELKSLALGFHSMVIRALGGILAPIYFGALIDTTCIKWSTNNCGTRGSCRTYNSTSFSRVYLGLSSMLRVSSLVLYIILIYAMKKKYQEKDINASENGSVMDEANLESLNKNKHFVPSAGADSETHC
Vmax [5, 10]: 9.81e-05 µmol/min/mg
Vmax/Km [5, 10]: 0.07 µL/min/mg
Vmax [7, 10]: 2.7e-05 µmol/min/mg
Vmax/Km [7, 10]: 0.06 µL/min/mg
Vmax [8, 10]: 8.93e-05 µmol/min/mg
Vmax/Km [8, 10]: 0.22 µL/min/mg
